# Changes are numbered by the printed parent chain.
# T1: rSaWRKY1 (Solanum arcanum Peralta (accession not …, UniProt A0A1P8NTG4 1-410))
# T1 sequence: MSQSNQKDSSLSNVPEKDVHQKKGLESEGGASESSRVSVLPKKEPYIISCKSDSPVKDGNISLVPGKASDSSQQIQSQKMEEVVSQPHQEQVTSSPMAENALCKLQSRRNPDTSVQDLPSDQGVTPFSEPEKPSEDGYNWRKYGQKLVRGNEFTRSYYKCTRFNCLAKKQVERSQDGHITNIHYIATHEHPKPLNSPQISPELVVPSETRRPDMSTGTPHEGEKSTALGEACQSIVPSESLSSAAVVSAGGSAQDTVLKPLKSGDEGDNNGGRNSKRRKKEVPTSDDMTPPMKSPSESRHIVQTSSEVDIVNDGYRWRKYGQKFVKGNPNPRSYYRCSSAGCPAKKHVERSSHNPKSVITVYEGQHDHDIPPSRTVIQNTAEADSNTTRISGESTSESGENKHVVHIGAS
# B1: 4xW-box (dsDNA)
# DNA 1: AAAAAATTGACCAAATTGACTCCAATTGACCAAATTGACCAAACACCACCTCCCACCTATAAAAAA
# DNA 2: TTTTTTATAGGTGGGAGGTGGTGTTTGGTCAATTTGGTCAATTGGAGTCAATTTGGTCAATTTTTT
# B2: mutated 4xW-box (4xmWbox) (dsDNA)
# DNA 1: B1 DNA 1 with G9T, G18T, G28T, G37T
# DNA 2: B1 DNA 2 with C30A, C39A, C49A, C58A
# Target: T1, rSaWRKY1
# Assay: EMSA; 10 ug protein; 10x binding buffer: 0.10 mg/mL BSA, 1 mM DTT, 10 mM EDTA, 50% glycerol, 1 M KCl, 100 mM Tris-HCl pH 7.5 (stock as printed; working dilution not stated); 25 C, 30 min; 2% agarose gel, GelRed
# Details: protein: recombinant; recombinant protein 62.6 kDa; label: none (GelRed stain); blunt
row,Binder,binding result
1,B1,binds
2,B2,no binding

# — article PMC6041441, “WRKY1 acts as a key component improving resistance against Alternaria solani in wild tomato, Solanum arcanum Peralta”
